Experimental data published in article PMC2991502 (Cytoskeleton (Hoboken, N.J.), 2010).

Target: Rabbit skeletal muscle actin (rabbit, UniProt P68135 1-377)
Test: co-sedimentation

binding result: binds
B1: FRL2 FH1-FH2 I649A (amino acids 447-945 of the mouse protein) (domain or fragment)
chain: TSNQVHTLRRLIKEKEEAFQRRCHLEPSARGLESMGGEALARVGPTELTEGIPPSDLDLLAPAPPTEETLPLPPPPAPPLPPPPPPLPDKCPPAPPLPGAAPSVVLTVGLSAIRIKKPIKTKFRLPVFNWTALKPNQINGTVFSELDDEKILEDLDLDRFEELFKTKAQGPALDLICSKNKTAQKAASKVTLLEANRAKNLAATLRKAGRSAEEICRAIHTFDLQTLPVDFVECLMRFLPTEAEVKLLRQYERERQPLEELAAEDRFMLLFSKVERLTQRMAGMAFLGNFQDNLQMLTPQLNAIIAASASVKSSQKLKQMLEIILALGNYMNSSKRGAVYGFKLQSLDLLLDTKSTDRKMTLLHFIALTVKEKYPELANFWQELHFVEKAAAVSLENVLLDVKELGRGMELIRRECSIHDNSVLRNFLSTNEGKLDKLQRDAKTAEEAYNAVVRYFGESPKTTPPSVFFPVFVRFIRSYKEAEQENEARKKQEEVMREK
